Measured values: patent US20160264674A1 (ADURO BIOTECH HOLDINGS EUROPE B V, published 2016)
Substitutions are numbered along the chain they refer to. Names and notes keep the numbering of the source. Blank lines part the entries; values can stand above or below the binder they belong to.

Experiments:
FLAG-tagged human APRIL [1] = target: T1, FLAG-tagged human APRIL (human, UniProt O75888 105-250, limits assumed); experiment: FLAG-APRIL ELISA after 10 min at 65 °C, antibody at 1 µg/ml
T1 construct: also called FLAG-tagged APRIL; FLAG-APRIL; not shown: FLAG tag
T1 sequence (looked up): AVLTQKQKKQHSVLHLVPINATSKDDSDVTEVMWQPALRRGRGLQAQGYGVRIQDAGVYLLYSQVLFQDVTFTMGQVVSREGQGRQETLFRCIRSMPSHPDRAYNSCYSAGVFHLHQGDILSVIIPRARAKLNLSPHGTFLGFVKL
Description: (§1) The plasmids encoding the VH and VL constructs were mixed in a 1:3 ratio (4 μg in total) and transiently expressed by transfection into HEK293T human embryonic kidney cells (HEK293T/17, ATCC-CRL-11268), using Lipofectamine 2000 transfection reagent (Invitrogen) following the manufacturer's instructions. Cell supernatants were harvested after 5 days and tested for expression of antibody and binding to APRIL using an enzyme-linked immuno assay (ELISA). In these ELISAs, all incubation steps were followed by a wash step with PBST (PBS with 0.01% Tween 20). Maxisorb 96-wells plates (Nunc) were coated with 0.5 μg/ml anti-FLAG (Sigma) or anti-IgG4 (Jackson laboratories) and incubated overnight at 4° C. Subsequently the anti-FLAG coated 96-wells plates were incubated with FLAG-tagged human APRIL for 1 hour at room temperature. Next, supernatants and dilutions thereof were incubated for 1 hour, which was followed by an incubation of 1 hour with mouse anti-human IgG HRP-conjugate (Southern Biotechnology).
(§2) To determine the effect of humanization on the stability of the antibodies, humanized antibodies were exposed to a range of temperatures for 10 minutes. Purified antibodies were diluted to 3.16 μg/ml and dilutions thereof in PBS. Next, these solutions were exposed to 65° C. or 70° C. and residual binding after heat treatment of the antibodies was measured using the FLAG-tagged APRIL ELISA assay as described before (see Table 6).

FLAG-tagged human APRIL [2] = target: T1, FLAG-tagged human APRIL; experiment: FLAG-APRIL ELISA after 10 min at 70 °C, antibody at 1 µg/ml
Description: as §1, §2

FLAG-tagged human APRIL [3] = target: T1, FLAG-tagged human APRIL; experiment: FLAG-APRIL ELISA after 10 min at 65 °C, antibody at 1 µg/ml; remark: listed apart in the source
Description: as §1, §2
(§3) In addition, the stability of the substituted humanized antibodies was improved as determined using thermostability studies as described in Example 3 (see Table 9).

FLAG-tagged human APRIL [4] = target: T1, FLAG-tagged human APRIL; experiment: FLAG-APRIL ELISA after 10 min at 70 °C, antibody at 1 µg/ml; remark: listed apart in the source
FLAG-tagged human APRIL [5] = target: T1, FLAG-tagged human APRIL; experiment: FLAG-APRIL ELISA after 10 min at 65 °C, antibody at 3.16 µg/ml
Description: as §1, §2

FLAG-tagged human APRIL [6] = target: T1, FLAG-tagged human APRIL; experiment: FLAG-APRIL ELISA after 10 min at 70 °C, antibody at 3.16 µg/ml
Description: as §1, §2

FLAG-tagged human APRIL [7] = target: T1, FLAG-tagged human APRIL; experiment: FLAG-APRIL ELISA after 10 min at 65 °C, antibody at 3.16 µg/ml; remark: listed apart in the source
Description: as §1, §2, §3

FLAG-tagged human APRIL [8] = target: T1, FLAG-tagged human APRIL; experiment: FLAG-APRIL ELISA after 10 min at 70 °C, antibody at 3.16 µg/ml; remark: listed apart in the source
FLAG-tagged human APRIL [9] = target: T1, FLAG-tagged human APRIL; experiment: FLAG-APRIL ELISA after 10 min at 65 °C, antibody at 0.316 µg/ml
Description: as §1, §2

FLAG-tagged human APRIL [10] = target: T1, FLAG-tagged human APRIL; experiment: FLAG-APRIL ELISA after 10 min at 70 °C, antibody at 0.316 µg/ml
Description: as §1, §2

FLAG-tagged human APRIL [11] = target: T1, FLAG-tagged human APRIL; experiment: FLAG-APRIL ELISA after 10 min at 65 °C, antibody at 0.316 µg/ml; remark: listed apart in the source
Description: as §1, §2, §3

FLAG-tagged human APRIL [12] = target: T1, FLAG-tagged human APRIL; experiment: FLAG-APRIL ELISA after 10 min at 70 °C, antibody at 0.316 µg/ml; remark: listed apart in the source
FLAG-tagged human APRIL [13] = target: T1, FLAG-tagged human APRIL; experiment: ELISA: FLAG-tagged human APRIL captured on anti-FLAG plate, purified antibody titrated
Description: as §1
A subset of humanized antibodies described above was selected for further analyses. Again, plasmids encoding the VH and VL constructs were mixed in a 1:3 ratio (32 μg) and transiently expressed by transfection into (8*10⁶) HEK293T human embryonic kidney cells (HEK293T), using Lipofectamine 2000 transfection reagent (Invitrogen) according to the manufacturer's instructions. Supernatants were harvested (10 ml) and antibodies were purified using MabSelect Sure Protein A resin according to the manufacturer's instructions (GE Healthcare). Buffer was exchanged for PBS using Zeba desalting columns (Thermo Scientific). The concentration of purified antibodies was determined based on OD280 (Nanodrop ND-1000). The binding of the purified antibodies to APRIL was established using the above described APRIL ELISA. The blocking capability of the humanized antibodies with BCMA and TACI receptors, was tested in a competition ELISA. In these ELISAs, all incubation steps were followed by a wash step with PBST (PBS with 0.01% Tween 20). Maxisorb 96-wells plates (Nunc) were coated with 0.5 μg/ml Fc-BCMA (R&D Systems) or Fc-TACI (R&D Systems) and incubated overnight at 4° C. Next, humanized antibodies and dilutions thereof were incubated, premixed with FLAG-tagged APRIL, for 1 hour, which was followed by an incubation of 1 hour with anti-FLAG HRP-conjugate (Sigma).

% residual binding after heat treatment (room temperature = 100%) (FLAG-tagged human APRIL [1]): 45.2%
% residual binding after heat treatment (room temperature = 100%) (FLAG-tagged human APRIL [2]): 42.5%
% residual binding after heat treatment (room temperature = 100%) (FLAG-tagged human APRIL [3]): 47.5%
% residual binding after heat treatment (room temperature = 100%) (FLAG-tagged human APRIL [4]): 55.1%
% residual binding after heat treatment (room temperature = 100%) (FLAG-tagged human APRIL [5]): 58.6%
% residual binding after heat treatment (room temperature = 100%) (FLAG-tagged human APRIL [6]): 50%
% residual binding after heat treatment (room temperature = 100%) (FLAG-tagged human APRIL [7]): 59%
% residual binding after heat treatment (room temperature = 100%) (FLAG-tagged human APRIL [8]): 58.6%
% residual binding after heat treatment (room temperature = 100%) (FLAG-tagged human APRIL [9]): 63.7%
% residual binding after heat treatment (room temperature = 100%) (FLAG-tagged human APRIL [10]): 63.1%
% residual binding after heat treatment (room temperature = 100%) (FLAG-tagged human APRIL [11]): 67.5%
% residual binding after heat treatment (room temperature = 100%) (FLAG-tagged human APRIL [12]): 79.1%
EC50 (FLAG-tagged human APRIL [13]): 48.3 nM
B1: VH14.VL15 (antibody, human IgG4 S228P, kappa, V domains shown)
VH: QVQLVQSGAEVKKPGASVKVSCKASGYTFTSYVMHWVRQAPGQGLEWMGYINPYNDAPKYNEKFKGRVTMTRDTSASTAYMELSSLRSDDTAVYYCARGLGYALYYAMDYWGQGTTVTVSS
VL: DIVMTQSPSTLSASVGDRVTITCKASQNVGNNVAWYQQKPGKAPKLLISSASNRDSGVPSRFSGSGSGTEFTLTISSLQPDDFATYFCQQYNIYPFTFGQGTKLEIKR
notes: Humanized IgG4 (S241P, Kabat) with human kappa, from HEK293T

% residual binding after heat treatment (room temperature = 100%) (FLAG-tagged human APRIL [1]): 44.4%
% residual binding after heat treatment (room temperature = 100%) (FLAG-tagged human APRIL [2]): 47.4%
% residual binding after heat treatment (room temperature = 100%) (FLAG-tagged human APRIL [5]): 76.2%
% residual binding after heat treatment (room temperature = 100%) (FLAG-tagged human APRIL [6]): 80.5%
% residual binding after heat treatment (room temperature = 100%) (FLAG-tagged human APRIL [9]): 66.1%
% residual binding after heat treatment (room temperature = 100%) (FLAG-tagged human APRIL [10]): 65%
EC50 (FLAG-tagged human APRIL [13]): 223 nM
B2: VH13.VL15 (antibody, human IgG4 S228P, kappa, V domains shown)
VH: B1 VH with A76T, A79V, D89E, T116M
VL: B1 VL
notes: Humanized IgG4 (S241P, Kabat) with human kappa, from HEK293T; also called 13.15

% residual binding after heat treatment (room temperature = 100%) (FLAG-tagged human APRIL [1]): 49.8%
% residual binding after heat treatment (room temperature = 100%) (FLAG-tagged human APRIL [2]): 51.8%
% residual binding after heat treatment (room temperature = 100%) (FLAG-tagged human APRIL [5]): 66.4%
% residual binding after heat treatment (room temperature = 100%) (FLAG-tagged human APRIL [6]): 50.2%
% residual binding after heat treatment (room temperature = 100%) (FLAG-tagged human APRIL [9]): 74.3%
% residual binding after heat treatment (room temperature = 100%) (FLAG-tagged human APRIL [10]): 70.3%
EC50 (FLAG-tagged human APRIL [13]): 19.8 nM
B3: VH12.VL15 (antibody, human IgG4 S228P, kappa, V domains shown)
VH: B1 VH with A76I, S85R
VL: B1 VL
notes: Humanized IgG4 (S241P, Kabat) with human kappa, from HEK293T; also called 12.15
